The values below come from paper PMC10991250, “Efficient synthesis 1,4-cyclohexanedicarboxaldehyde by an engineered alcohol oxidase” (Bioresources and Bioprocessing, 2022).

Substrate in data set [1]: O=CC1CCC(CO)CC1
Kind of data set: initial rate of CHDA formation by GC, Michaelis-Menten fit. The format is biochemical, Pseudarthrobacter chlorophenolicus. As to conditions: 1-100 mM HMCA, air-saturated O2, 100 mM potassium phosphate pH 8.0, 30 °C, 5% DMSO, 0.1 g/L catalase. The text has this:
initial rate of CHDA formation by GC, Michaelis-Menten fit on AcCO

Substrate in data set [2]: OCC1CCC(CO)CC1
Nature of the data set: initial rate of HMCA formation by GC, Michaelis-Menten fit. The format is biochemical, Pseudarthrobacter chlorophenolicus. As to conditions: 1-100 mM CHDM, air-saturated O2, 100 mM potassium phosphate pH 8.0, 30 °C, 5% DMSO, 0.1 g/L catalase. The text has this: initial rate of HMCA formation by GC, Michaelis-Menten fit on AcCO

B1: AcCO (Pseudarthrobacter chlorophenolicus A6) (protein)
chain: MHIDNIENLSDRGFDYVVIGGGSAGAAVAARLSEDPDVSVALVEAGPDDRNIPEILQLDRWMELLESGYDWDYPIEPQENGNSFMRHARAKVMGGCSSHNSCIAFWAPREDLDEWESKYGATGWNAANAWPLYKRLETNQDAGPDAPHHGDSGPVHLMNVPPADPSGVALLDACEEAGIPRARFNTGTTVVNGANFFQINRRGDGTRSSSSVSYIHPIIERDNFTLLTGLRARQLVFDADKRCTGVEVVDGAFGRTHRLTARHEVILSTGAIDSPKLLMLSGIGPAEHLAQHGIEVLVDSPGVGENLQDHPEGVVQFEAKQPMVQTSTQWWEIGIFTPTEDGLDRPDLMMHYGSVPFDMNTLRHGYPTTENGFSLTPNVTHARSRGTVRLRSRDFRDKPMVDPRYFTDPEGHDMRVMVAGIRKAREIAAQPAMSAWTGRELSPGVGAQTDEELQDYIRKTHNTVYHPVGTVRMGADDDGMSPLDARLRVKGVTGLRVADASVMPEHVTVNPNITVMMIGERCADLIKADYAGADALEEKELTTSFA
notes: codon-optimized synthetic gene in pET-28a(+) (BamHI/EcoRI), E. coli BL21(DE3), purified by AKTA; FAD-dependent
On to B1, for which, in data set [1], the Km worked out at 26.81 ± 0.19 mM, the kcat was 0.000717 ± 0.000217 s⁻¹ and the kcat/Km came to 0.0267 M⁻¹ s⁻¹. Further, in data set [2], the Km was 15.30 ± 0.14 mM, the kcat was 0.00267 ± 0.000467 s⁻¹ and the kcat/Km is 0.167 M⁻¹ s⁻¹.

B2: AcCO (Pseudarthrobacter chlorophenolicus A6; H351V) (protein)
chain: MHIDNIENLSDRGFDYVVIGGGSAGAAVAARLSEDPDVSVALVEAGPDDRNIPEILQLDRWMELLESGYDWDYPIEPQENGNSFMRHARAKVMGGCSSHNSCIAFWAPREDLDEWESKYGATGWNAANAWPLYKRLETNQDAGPDAPHHGDSGPVHLMNVPPADPSGVALLDACEEAGIPRARFNTGTTVVNGANFFQINRRGDGTRSSSSVSYIHPIIERDNFTLLTGLRARQLVFDADKRCTGVEVVDGAFGRTHRLTARHEVILSTGAIDSPKLLMLSGIGPAEHLAQHGIEVLVDSPGVGENLQDHPEGVVQFEAKQPMVQTSTQWWEIGIFTPTEDGLDRPDLMMVYGSVPFDMNTLRHGYPTTENGFSLTPNVTHARSRGTVRLRSRDFRDKPMVDPRYFTDPEGHDMRVMVAGIRKAREIAAQPAMSAWTGRELSPGVGAQTDEELQDYIRKTHNTVYHPVGTVRMGADDDGMSPLDARLRVKGVTGLRVADASVMPEHVTVNPNITVMMIGERCADLIKADYAGADALEEKELTTSFA
notes: as for B1
With B2, in data set [1], the Km is 16.24 ± 0.11 mM, the kcat came out at 0.004 ± 0.000367 s⁻¹ and the kcat/Km was 0.247 M⁻¹ s⁻¹. In data set [2], the Km is on record as 13.36 ± 0.12 mM, the kcat is 0.00683 ± 0.00045 s⁻¹ and the kcat/Km is 0.517 M⁻¹ s⁻¹.

B3: AcCO (Pseudarthrobacter chlorophenolicus A6; H351V/N378S/Q329N/S101A) (protein)
chain: MHIDNIENLSDRGFDYVVIGGGSAGAAVAARLSEDPDVSVALVEAGPDDRNIPEILQLDRWMELLESGYDWDYPIEPQENGNSFMRHARAKVMGGCSSHNACIAFWAPREDLDEWESKYGATGWNAANAWPLYKRLETNQDAGPDAPHHGDSGPVHLMNVPPADPSGVALLDACEEAGIPRARFNTGTTVVNGANFFQINRRGDGTRSSSSVSYIHPIIERDNFTLLTGLRARQLVFDADKRCTGVEVVDGAFGRTHRLTARHEVILSTGAIDSPKLLMLSGIGPAEHLAQHGIEVLVDSPGVGENLQDHPEGVVQFEAKQPMVQTSTNWWEIGIFTPTEDGLDRPDLMMVYGSVPFDMNTLRHGYPTTENGFSLTPSVTHARSRGTVRLRSRDFRDKPMVDPRYFTDPEGHDMRVMVAGIRKAREIAAQPAMSAWTGRELSPGVGAQTDEELQDYIRKTHNTVYHPVGTVRMGADDDGMSPLDARLRVKGVTGLRVADASVMPEHVTVNPNITVMMIGERCADLIKADYAGADALEEKELTTSFA
notes: as for B1
Turning to B3, in data set [1], the Km was 5.24 ± 0.28 mM, the kcat came to 0.0157 ± 0.000717 s⁻¹ and the kcat/Km worked out at 3 M⁻¹ s⁻¹. Also, in data set [2], the Km was determined as 1.12 ± 0.19 mM, the kcat is 0.0367 ± 0.00717 s⁻¹ and the kcat/Km came out at 32.7 M⁻¹ s⁻¹.

B4: AcCO (Pseudarthrobacter chlorophenolicus A6; H351V/N378S/S101A) (protein)
chain: MHIDNIENLSDRGFDYVVIGGGSAGAAVAARLSEDPDVSVALVEAGPDDRNIPEILQLDRWMELLESGYDWDYPIEPQENGNSFMRHARAKVMGGCSSHNACIAFWAPREDLDEWESKYGATGWNAANAWPLYKRLETNQDAGPDAPHHGDSGPVHLMNVPPADPSGVALLDACEEAGIPRARFNTGTTVVNGANFFQINRRGDGTRSSSSVSYIHPIIERDNFTLLTGLRARQLVFDADKRCTGVEVVDGAFGRTHRLTARHEVILSTGAIDSPKLLMLSGIGPAEHLAQHGIEVLVDSPGVGENLQDHPEGVVQFEAKQPMVQTSTQWWEIGIFTPTEDGLDRPDLMMVYGSVPFDMNTLRHGYPTTENGFSLTPSVTHARSRGTVRLRSRDFRDKPMVDPRYFTDPEGHDMRVMVAGIRKAREIAAQPAMSAWTGRELSPGVGAQTDEELQDYIRKTHNTVYHPVGTVRMGADDDGMSPLDARLRVKGVTGLRVADASVMPEHVTVNPNITVMMIGERCADLIKADYAGADALEEKELTTSFA
notes: as for B1
In the case of B4, in data set [1], the Km stood at 6.81 ± 0.13 mM, the kcat turned out to be 0.00883 ± 0.002 s⁻¹ and the kcat/Km stood at 1.3 M⁻¹ s⁻¹. For the same protein, in data set [2], the Km worked out at 7.63 ± 0.72 mM, the kcat is 0.0312 ± 0.002 s⁻¹ and the kcat/Km stood at 4 M⁻¹ s⁻¹.

B5: AcCO (Pseudarthrobacter chlorophenolicus A6; S101A) (protein)
chain: MHIDNIENLSDRGFDYVVIGGGSAGAAVAARLSEDPDVSVALVEAGPDDRNIPEILQLDRWMELLESGYDWDYPIEPQENGNSFMRHARAKVMGGCSSHNACIAFWAPREDLDEWESKYGATGWNAANAWPLYKRLETNQDAGPDAPHHGDSGPVHLMNVPPADPSGVALLDACEEAGIPRARFNTGTTVVNGANFFQINRRGDGTRSSSSVSYIHPIIERDNFTLLTGLRARQLVFDADKRCTGVEVVDGAFGRTHRLTARHEVILSTGAIDSPKLLMLSGIGPAEHLAQHGIEVLVDSPGVGENLQDHPEGVVQFEAKQPMVQTSTQWWEIGIFTPTEDGLDRPDLMMHYGSVPFDMNTLRHGYPTTENGFSLTPNVTHARSRGTVRLRSRDFRDKPMVDPRYFTDPEGHDMRVMVAGIRKAREIAAQPAMSAWTGRELSPGVGAQTDEELQDYIRKTHNTVYHPVGTVRMGADDDGMSPLDARLRVKGVTGLRVADASVMPEHVTVNPNITVMMIGERCADLIKADYAGADALEEKELTTSFA
notes: as for B1
For B5, in data set [1], the Km is reported as 20.42 ± 0.12 mM, the kcat was found to be 0.00233 ± 0.000367 s⁻¹ and the kcat/Km is 0.114 M⁻¹ s⁻¹. In addition, in data set [2], the Km is reported as 13.45 ± 0.23 mM, the kcat was found to be 0.00617 ± 0.00107 s⁻¹ and the kcat/Km stood at 0.45 M⁻¹ s⁻¹.

B6: AcCO (Pseudarthrobacter chlorophenolicus A6; H351V/S101A) (protein)
chain: MHIDNIENLSDRGFDYVVIGGGSAGAAVAARLSEDPDVSVALVEAGPDDRNIPEILQLDRWMELLESGYDWDYPIEPQENGNSFMRHARAKVMGGCSSHNACIAFWAPREDLDEWESKYGATGWNAANAWPLYKRLETNQDAGPDAPHHGDSGPVHLMNVPPADPSGVALLDACEEAGIPRARFNTGTTVVNGANFFQINRRGDGTRSSSSVSYIHPIIERDNFTLLTGLRARQLVFDADKRCTGVEVVDGAFGRTHRLTARHEVILSTGAIDSPKLLMLSGIGPAEHLAQHGIEVLVDSPGVGENLQDHPEGVVQFEAKQPMVQTSTQWWEIGIFTPTEDGLDRPDLMMVYGSVPFDMNTLRHGYPTTENGFSLTPNVTHARSRGTVRLRSRDFRDKPMVDPRYFTDPEGHDMRVMVAGIRKAREIAAQPAMSAWTGRELSPGVGAQTDEELQDYIRKTHNTVYHPVGTVRMGADDDGMSPLDARLRVKGVTGLRVADASVMPEHVTVNPNITVMMIGERCADLIKADYAGADALEEKELTTSFA
notes: as for B1
Take B6: in data set [1], the Km is 14.44 ± 0.46 mM, the kcat worked out at 0.00683 ± 0.000233 s⁻¹ and the kcat/Km came out at 0.473 M⁻¹ s⁻¹. In data set [2], the Km was 10.21 ± 0.46 mM, the kcat is 0.02183 ± 0.000183 s⁻¹ and the kcat/Km stood at 2.17 M⁻¹ s⁻¹.
